Data reported in PMC11513116.
Several values for one entry are separate records, joined by “and”; a condition that tells them apart may be missing. Equal entries are not always repeated.

Biological target: GCSC1-GFP fusion protein (UBIpro::GCSC1-GFP) (rice (variety Lemont))
Experiment: native gel or EMSA

GCSC1-GFP fusion protein (UBIpro::GCSC1-GFP) (natural protein)
stoichiometry N: 2 and 4
